Test results reported in patent US20120316071A1 (published 2012).
Each block holds one binder with its values, some of them ahead of it.

Columns and labels:
[1] = biological target: T1, Recombinant Human DLL4 (delta-like protein 4) (human, UniProt Q9NR61 27-524); assay: ECL (MSD) binding assay, DLL4 immobilised, Fab at 10 nM
T1 construct: also called rHuman DLL4; Delta-like 4

[2] = biological target: T2, Recombinant Human DLL4 (R&D Systems Cat#1506-D4/CF) (human, UniProt Q9NR61 27-524); assay: ECL (MSD) binding assay, immobilised DLL4, 10 nM Fab;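 further: fab binding read as electrochemiluminescence via a TAG-labelled detection antibody, 1 h incubations at 20 °C, antigen signal compared with each well's blank, ratio of at least 4 scored as binder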
T2 construct: Bought recombinant human DLL4; also called delta-like protein 4; rHuman DLL4

[3] = biological target: T2, Recombinant Human DLL4 (R&D Systems …); assay: ELISA on coated DLL4, 100 nM Fab
[4] = biological target: T3, Recombinant Human DLL4 (delta-like protein 4) (human, UniProt Q9NR61 27-524); assay: ELISA on coated DLL4, Fab at 12.5 nM (2-fold serial dilution)
T3 construct: also called rHuman DLL4; Delta-like 4

[5] = biological target: T3, Recombinant Human DLL4 (delta-like …); assay: ELISA on coated DLL4, Fab at 3.125 nM (2-fold serial dilution)
[6] = biological target: T3, Recombinant Human DLL4 (delta-like …); assay: ELISA on coated DLL4, Fab at 25 nM (2-fold serial dilution)
[7] = biological target: T3, Recombinant Human DLL4 (delta-like …); assay: ELISA on coated DLL4, Fab at 50 nM (2-fold serial dilution)
[8] = biological target: T3, Recombinant Human DLL4 (delta-like …); assay: ELISA on coated DLL4, Fab at 100 nM (2-fold serial dilution)
[9] = biological target: T3, Recombinant Human DLL4 (delta-like …); assay: ELISA on coated DLL4, Fab at 6.25 nM (2-fold serial dilution)

Signal [10 nM Fab] [1]: 14200
B1: Fab VH1-46_IGHD6-6*01_IGHJ1*01 S102A/S103P/S104F/H111F & L6_IGKJ1*01 N53A (Fab, V domains shown)
VH: QVQLVQSGAEVKKPGASVKVSCKASGYTFTSYYMHWVRQAPGQGLEWMGIINPSGGSTSYAQKFQGRVTMTRDTSTSTVYMELSSLRSEDTAVYYCAREEYAPFSAEYFQFWGQGTLVTVSS
VL: EIVLTQSPATLSLSPGERATLSCRASQSVSSYLAWYQQKPGQAPRLLIYDASARATGIPARFSGSGSGTDFTLTISSLEPEDFAVYYCQQRSNWPPWTFGQGTKVEIKR
notes: also called APFF & L6_IGKJ1*01 N53A

Signal [10 nM Fab] [1]: 11600
B2: Fab VH1-46_IGHD6-6*01_IGHJ1*01 S102A/S103P/S104F/H111F & L6_IGKJ1*01 R54A (Fab, V domains shown)
VH: QVQLVQSGAEVKKPGASVKVSCKASGYTFTSYYMHWVRQAPGQGLEWMGIINPSGGSTSYAQKFQGRVTMTRDTSTSTVYMELSSLRSEDTAVYYCAREEYAPFSAEYFQFWGQGTLVTVSS
VL: EIVLTQSPATLSLSPGERATLSCRASQSVSSYLAWYQQKPGQAPRLLIYDASNAATGIPARFSGSGSGTDFTLTISSLEPEDFAVYYCQQRSNWPPWTFGQGTKVEIKR
notes: also called APFF & L6_IGKJ1*01 R54A

Signal [10 nM Fab] [1]: 19300
B3: Fab VH1-46_IGHD6-6*01_IGHJ1*01 S102A/S103P/S104F/H111F & L6_IGKJ1*01 S52A (Fab, V domains shown)
VH: QVQLVQSGAEVKKPGASVKVSCKASGYTFTSYYMHWVRQAPGQGLEWMGIINPSGGSTSYAQKFQGRVTMTRDTSTSTVYMELSSLRSEDTAVYYCAREEYAPFSAEYFQFWGQGTLVTVSS
VL: EIVLTQSPATLSLSPGERATLSCRASQSVSSYLAWYQQKPGQAPRLLIYDAANRATGIPARFSGSGSGTDFTLTISSLEPEDFAVYYCQQRSNWPPWTFGQGTKVEIKR
notes: also called APFF & L6_IGKJ1*01 S52A

Signal [10 nM Fab] [1]: 7260
B4: Fab VH1-46_IGHD6-6*01_IGHJ1*01 S102A/S103P/S104F/H111F & L6_IGKJ1*01 T56A (Fab, V domains shown)
VH: QVQLVQSGAEVKKPGASVKVSCKASGYTFTSYYMHWVRQAPGQGLEWMGIINPSGGSTSYAQKFQGRVTMTRDTSTSTVYMELSSLRSEDTAVYYCAREEYAPFSAEYFQFWGQGTLVTVSS
VL: EIVLTQSPATLSLSPGERATLSCRASQSVSSYLAWYQQKPGQAPRLLIYDASNRAAGIPARFSGSGSGTDFTLTISSLEPEDFAVYYCQQRSNWPPWTFGQGTKVEIKR
notes: also called APFF & L6_IGKJ1*01 T56A

ECL Signal [10 nM Fab] [2]: 61700
ELISA Signal [100 nM Fab] [3]: 0.02
B5: Fab VH5-51_IGHD5-18*01>3_IGHJ4*01 G100K/G104T (H:KT) & V3-4_IGLJ1*01 S96M (Fab, V domains shown)
VH: EVQLVQSGAEVKKPGESLKISCKGSGYSFTSYWIGWVRQMPGKGLEWMGIIYPGDSDTRYSPSFQGQVTISADKSISTAYLQWSSLKASDTAMYYCARRKYSYTYDYFDYWGQGTLVTVSS
VL: QTVVTQEPSFSVSPGGTVTLTCGLSSGSVSTSYYPSWYQQTPGQAPRTLIYSTNTRSSGVPDRFSGSILGNKAALTITGAQADDESDYYCVLYMGMGISYVFGTGTKVTVL
notes: Fab format: CH1 with His6 and Flag tags, and lambda CL, from the vectors; also called G100K/G104T & S96M

ELISA signal [4]: 0.215
ELISA signal [5]: 0.216
ELISA signal [6]: 0.227
ELISA signal [7]: 0.194
ELISA signal [8]: 0.209
ELISA signal [9]: 0.207
B6: Fab VH5-51_IGHD5-18*01>3_IGHJ4*01 G100K/G104T (KT) & V3-4_IGLJ1*01 S52G (Fab, V domains shown)
VH: EVQLVQSGAEVKKPGESLKISCKGSGYSFTSYWIGWVRQMPGKGLEWMGIIYPGDSDTRYSPSFQGQVTISADKSISTAYLQWSSLKASDTAMYYCARRKYSYTYDYFDYWGQGTLVTVSS
VL: QTVVTQEPSFSVSPGGTVTLTCGLSSGSVSTSYYPSWYQQTPGQAPRTLIYGTNTRSSGVPDRFSGSILGNKAALTITGAQADDESDYYCVLYMGSGISYVFGTGTKVTVL
notes: Fab; also called H:KT & L:S52G

ELISA signal [4]: 0.244
ELISA signal [5]: 0.251
ELISA signal [6]: 0.232
ELISA signal [7]: 0.232
ELISA signal [8]: 0.271
ELISA signal [9]: 0.245
B7: Fab VH5-51_IGHD5-18*01>3_IGHJ4*01 G100K/G104T G35V & V3-4_IGLJ1*01 (Fab, V domains shown)
VH: EVQLVQSGAEVKKPGESLKISCKGSGYSFTSYWIVWVRQMPGKGLEWMGIIYPGDSDTRYSPSFQGQVTISADKSISTAYLQWSSLKASDTAMYYCARRKYSYTYDYFDYWGQGTLVTVSS
VL: QTVVTQEPSFSVSPGGTVTLTCGLSSGSVSTSYYPSWYQQTPGQAPRTLIYSTNTRSSGVPDRFSGSILGNKAALTITGAQADDESDYYCVLYMGSGISYVFGTGTKVTVL
notes: Fab; also called H:KT G35V & L:parent

ECL Signal [10 nM Fab] [2]: 54000
ELISA Signal [100 nM Fab] [3]: 0.03
B8: Fab VH5-51_IGHD5-18*01>3_IGHJ4*01 G100K/G104T (H:KT) & V3-4_IGLJ1*01 S96P (Fab, V domains shown)
VH: EVQLVQSGAEVKKPGESLKISCKGSGYSFTSYWIGWVRQMPGKGLEWMGIIYPGDSDTRYSPSFQGQVTISADKSISTAYLQWSSLKASDTAMYYCARRKYSYTYDYFDYWGQGTLVTVSS
VL: QTVVTQEPSFSVSPGGTVTLTCGLSSGSVSTSYYPSWYQQTPGQAPRTLIYSTNTRSSGVPDRFSGSILGNKAALTITGAQADDESDYYCVLYMGPGISYVFGTGTKVTVL
notes: Tested as a Fab made in E. coli; The heavy chain vector (plasmid A) adds CH1 with His6 and Flag tags; the lambda light chain vector (plasmid E) adds CL; also called G100K/G104T & S96P
